In patent US20140271668:

Legend:
[1] = target: T1, non-catalytic mutant T240R parkin (lentiviral), O60260
T1 chain: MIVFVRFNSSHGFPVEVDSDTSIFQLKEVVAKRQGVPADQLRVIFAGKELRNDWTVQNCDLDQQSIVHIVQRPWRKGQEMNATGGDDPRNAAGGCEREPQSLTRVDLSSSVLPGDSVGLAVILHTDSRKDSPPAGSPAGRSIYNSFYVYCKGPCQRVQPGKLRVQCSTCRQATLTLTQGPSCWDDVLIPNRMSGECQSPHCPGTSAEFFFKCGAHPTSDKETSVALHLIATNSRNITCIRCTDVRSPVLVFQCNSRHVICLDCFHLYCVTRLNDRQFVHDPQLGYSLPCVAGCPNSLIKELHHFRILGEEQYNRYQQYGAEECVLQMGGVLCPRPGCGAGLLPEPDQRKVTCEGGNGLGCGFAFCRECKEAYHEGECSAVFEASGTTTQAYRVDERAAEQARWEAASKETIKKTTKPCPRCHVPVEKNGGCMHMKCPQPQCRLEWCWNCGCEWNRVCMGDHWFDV

[2] = target: lentiviral wild type parkin (expressed in transfected neuroblastoma cells), O60260

B1: lentiviral USP13 (expressed in transfected neuroblastoma cells) (protein)
chain: MQRRGALFGMPGGSGGRKMAAGDIGELLVPHMPTIRVPRSGDRVYKNECAFSYDSPNSEGGLYVCMNTFLAFGREHVERHFRKTGQSVYMHLKRHVREKVRGASGGALPKRRNSKIFLDLDTDDDLNSDDYEYEDEAKLVIFPDHYEIALPNIEELPALVTIACDAVLSSKSPYRKQDPDTWENELPVSKYANNLTQLDNGVRIPPSGWKCARCDLRENLWLNLTDGSVLCGKWFFDSSGGNGHALEHYRDMGYPLAVKLGTITPDGADVYSFQEEEPVLDPHLAKHLAHFGIDMLHMHGTENGLQDNDIKLRVSEWEVIQESGTKLKPMYGPGYTGLKNLGNSCYLSSVMQAIFSIPEFQRAYVGNLPRIFDYSPLDPTQDFNTQMTKLGHGLLSGQYSKPPVKSELIEQVMKEEHKPQQNGISPRMFKAFVSKSHPEFSSNRQQDAQEFFLHLVNLVERNRIGSENPSDVFRFLVEERIQCCQTRKVRYTERVDYLMQLPVAMEAATNKDELIAYELTRREAEANRRPLPELVRAKIPFSACLQAFSEPENVDDFWSSALQAKSAGVKTSRFASFPEYLVVQIKKFTFGLDWVPKKFDVSIDMPDLLDINHLRARGLQPGEEELPDISPPIVIPDDSKDRLMNQLIDPSDIDESSVMQLAEMGFPLEACRKAVYFTGNMGAEVAFNWIIVHMEEPDFAEPLTMPGYGGAASAGASVFGASGLDNQPPEEIVAIITSMGFQRNQAIQALRATNNNLERALDWIFSHPEFEEDSDFVIEMENNANANIISEAKPEGPRVKDGSGTYELFAFISHMGTSTMSGHYICHIKKEGRWVIYNDHKVCASERPPKDLGYMYFYRRIPS
In the case of B1, the “level of ubiquitinated proteins (parkin immunoprecipitation and Western blot with anti-ubiquitin antibodies)” value [1] is reported as “the level of ubiquitinated proteins when mutant T240R parkin was expressed was unaltered in the presence or absence of USP13”, the “parkin ubiquitination (E3LITE ubiquitin ligase ELISA with E1, UbcH7, ATP and WT ubiquitin)” value [2] is reported as “USP13 significantly decreased (36%) parkin ubiquitination” and the “ubiquitinated parkin level (parkin immunoprecipitation and Western blot with anti-ubiquitin antibodies)” value [2] is reported as “decreased ubiquitinated parkin level when parkin was co-expressed with USP13”.
